Like-named read-outs stand apart in the source and are kept apart here.
How the values were obtained:
human IL-6 (Toray) [1] = molecular target: T1, human IL-6 (Toray) (human, UniProt P05231 30-212); test: Biacore T100, antibody captured on protein A/G, human IL-6 as analyte, 37C; ratio of KD at pH 5.5 to pH 7.4
T1 construct: also called human interleukin-6
Method: (§1) Kinetic analysis of antigen-antibody reactions at pH 5.5 and pH 7.4 was carried out using Biacore T100 (GE Healthcare) for the three types of antibodies prepared as mentioned above: Anti-IL6 wild type, Anti-IL6 clone 1, and Anti-IL-6 clone 2 (buffer: DPBS(−) (pH 7.4 or pH 5.5), 150 mM NaCl). The antibodies were bound to a sensor chip on which recomb-protein A/G (Pierce) was immobilized by amine coupling, and then human IL-6 (Toray) adjusted to an appropriate concentration was injected on the chip as an analyte. All the measurements were carried out at 37° C. Association rate constants kₐ (1/Ms) and dissociation rate constants kd (1/s) were calculated using Biacore T100 Evaluation Software (GE Healthcare), and dissociation constants KD (M) were calculated based on those values (Table 14). Furthermore, the ratio of affinity at pH 5.5 and pH 7.4 was calculated for each clone to evaluate the pH-dependent binding.

human IL-6 (Toray) [2] = molecular target: T1, human IL-6 (Toray); test: Biacore T100, human IL-6 as analyte; KD(pH 5.5)/KD(pH 7.4) compared with Anti-IL6 wild type
Method: as §1

[3] = molecular target: T2, recombinant soluble human IL-6 receptor (SR344) (human, UniProt P08887 20-344); test: Biacore T100, biotinylated SR344 immobilized via streptavidin (membrane-type IL-6 receptor model), antibody as analyte; ratio of kd at pH 5.8 to pH 7.4
T2 construct: In the 'membrane-type IL-6 receptor' Biacore assays the same SR344 was biotinylated and immobilized via streptavidin; also called soluble IL-6 receptor; membrane-type IL-6 receptor (as biotinylated SR344 immobilized on the sensor chip)
T2 sequence (looked up): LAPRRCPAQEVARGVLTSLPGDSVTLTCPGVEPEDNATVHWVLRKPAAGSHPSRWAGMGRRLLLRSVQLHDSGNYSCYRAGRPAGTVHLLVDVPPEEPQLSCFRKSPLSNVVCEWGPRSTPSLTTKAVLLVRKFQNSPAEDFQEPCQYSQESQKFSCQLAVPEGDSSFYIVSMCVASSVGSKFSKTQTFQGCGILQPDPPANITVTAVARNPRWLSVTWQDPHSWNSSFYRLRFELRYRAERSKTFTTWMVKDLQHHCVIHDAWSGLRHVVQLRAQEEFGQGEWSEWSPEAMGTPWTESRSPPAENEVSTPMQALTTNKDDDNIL
Method: (§2) Binding to the membrane-type IL-6 receptor was evaluated by evaluating binding to the IL-6 receptor immobilized on a sensor chip. SR344 was biotinylated in accordance with a method known among persons with ordinary skill in the art, and the biotinylated SR344 was immobilized on the sensor chip via streptavidin using the affinity between streptavidin and biotin. All the measurements were carried out at 37° C. The mobile phase buffer was 10 mM MES (pH 5.8), 150 mM NaCl and 0.05% Tween 20.
(§3) The pH-dependently-binding clones were injected under the condition of pH 7.4 to allow them to bind to SR344, and then, the pH-dependent dissociation of each clone at the pH of the mobile phase, pH 5.8, was observed. The results are shown in FIG. 21 (results for Fv1-M71, Fv1-M73, Fv3-M71, and Fv3-M73 are shown in FIG. 21, while results for other clones are shown in FIGS. 17 and 19). Analyses were carried out in the same manner as in Example 10 and the pH dependencies of the dissociation rate constants of all of the eleven types of clones are shown in Table 12.

[4] = molecular target: T2, recombinant soluble human IL-6 receptor …; test: Biacore T100, SR344 as analyte; KD(pH5.8)/KD(pH7.4) compared with WT
Method: (§4) Kinetic analyses of antigen-antibody reactions at pH 5.8 and pH 7.4 were carried out using Biacore T100 (GE Healthcare) on the four antibodies: humanized PM1 antibody (WT) and H3pI/L73, CLH5/L73, and H170/L82 produced in Examples 2 and 4 (buffer: 10 mM MES (pH 7.4 or pH 5.8), 150 mM NaCl, and 0.05% Tween 20). Various antibodies were bound onto a sensor chip immobilized with recomb-protein A/G (Pierce) by amine coupling. SR344 adjusted to concentrations of 9.8 to 400 nM was injected to the chip as an analyte. […] All the measurements were carried out at 37° C. Association rate constants kₐ (1/Ms) and dissociation rate constants kd (1/s) were calculated using Biacore T100 Evaluation Software (GE Healthcare), and dissociation constants KD (M) were calculated on the basis of those values (Table 5). Moreover, the ratio of the affinities at pH 5.8 and pH 7.4 were calculated for each clone to evaluate pH-dependent binding. All the measurements were carried out at 37° C.

[5] = molecular target: T2, recombinant soluble human IL-6 receptor …; test: Biacore T100, antibody captured on protein A/G, SR344 as analyte, 37C; ratio of KD at pH 5.8 to pH 7.4
Method: as §4

[6] = molecular target: T2, recombinant soluble human IL-6 receptor …; test: Biacore T100, biotinylated SR344 immobilized via streptavidin (membrane-type IL-6 receptor model), antibody as analyte; ratio of kd at pH 5.8 to pH 7.4; remark: listed apart in the source
Method: as §2, §3

[7] = molecular target: T2, recombinant soluble human IL-6 receptor …; test: Biacore T100, antibody captured on protein A/G, SR344 as analyte, 37C; ratio of kd at pH 5.8 to pH 7.4
Method: (§5) Kinetic analysis of antigen-antibody reactions at pH 7.4 and pH 5.8 was carried out using Biacore T100 (GE Healthcare) for the four types of antibodies prepared: WT-IgG1, H54/L28-IgG1, H170/L82-IgG1, and Fv4-IgG1(buffer: 10 mM MES (pH 7.4 or pH 5.8), 150 mM NaCl, 0.05% Surfactant-P20). The antibodies were bound to a sensor chip on which recomb-protein A/G (Pierce) was immobilized by amine coupling, and SR344 adjusted to an appropriate concentration was injected therein as an analyte. The association with and dissociation from SR344 of each type of antibody were observed on a real-time basis. All the measurements were carried out at 37° C. Association rate constants kₐ (1/Ms) and dissociation rate constants kd (1/s) were calculated using Biacore T100 Evaluation Software (GE Healthcare), and dissociation constants KD (M) were calculated based on those values (Table 17).

[8] = molecular target: T2, recombinant soluble human IL-6 receptor …; test: Biacore T100, integrated RU of SR344 bound over ten cycles of pH 7.4 binding and pH 5.8 exposure, 37C
Excerpt: Biacore (GE Healthcare) was used to evaluate that the antibodies binding at pH 7.4 and dissociating at pH 5.8 were able to bind to the antigen multiple times. The antibody to be evaluated was bound to a recomb-protein A/G (Pierce)-immobilized sensor chip by the amine coupling method, and a mobile phase of pH 7.4 was allowed to flow (step 1). SR344 solution adjusted to pH 7.4 was then allowed to flow as an analyte to bind SR344 to the antibody at pH 7.4 (step 2). This binding at pH 7.4 mimics the antigen binding in plasma. Subsequently, buffer adjusted to pH 5.8 alone (not containing SR344) was added as an analyte to expose the antigen bound to the antibody to acidic conditions (step 3). This dissociation at pH 5.8 mimics the binding state of antigen-antibody complexes in endosomes. Subsequently, step 2 was repeated. This mimics the rebinding of antibody that has been returned to plasma by FcRn to a new antigen. Subsequently, […] was repeated to expose the antibody-antigen complex to acidic conditions.
The produced pH-dependent binding clones described above were analyzed using Biacore T100 (GE Healthcare) for their ability to bind to the antigen SR344 multipe times at pH 5.8 and pH 7.4. More specifically, the analysis was carried out as follows. All the measurements were carried out at 37° C. […]

[9] = molecular target: T2, recombinant soluble human IL-6 receptor …; test: Biacore T100, antibody captured on protein A/G, SR344 as analyte, 37C; ratio of KD at pH 5.8 to pH 7.4; remark: listed apart in the source
Method: as §5

B1: Anti-IL6 wild type (antibody, human IgG1, kappa, V domains shown)
VH: EVQLVESGGKLLKPGGSLKLSCAASGFTFSSFAMSWFRQSPEKRLEWVAEISSGGSYTYYPDTVTGRFTISRDNAKNTLYLEMSSLRSEDTAMYYCARGLWGYYALDYWGQGTSVTVSS
VL: QIVLIQSPAIMSASPGEKVTMTCSASSSVSYMYWYQQKPGSSPRLLIYDTSNLASGVPVRFSGSGSGTSYSLTISRMEAEDAATYYCQQWSGYPYTFGGGTKLEIKR
notes: also called WT (anti-IL-6 antibody of WO 2004/039826)
- KD(pH 5.5)/KD(pH 7.4) (human IL-6 (Toray) [1]): 0.8

B2: Anti-IL-6 clone 2 (antibody, human IgG1, kappa, V domains shown)
VH: EVQLVESGGKLLKPGGSLKLSCAASGFTFSSHAMSWFRQSPEKRLEWVAEISSGGSYTYHPHTVTGRFTISRDNAKNTLYLEMSSLRSEDTAMYYCARGLWGHYALDYWGQGTSVTVSS
VL: QIVLIQSPAIMSASPGEKVTMTCSASSSVSYMYWYQQKPGSSPRLLIYDTSHHASGVPVRFSGSGSGTSYSLTISRMEAEDAATYYCQHWSGHPYTFGGGTKLEIKR
notes: H chain (c1) and L chain (c2)
- KD(pH 5.5)/KD(pH 7.4) (human IL-6 (Toray) [1]): 13.5
- pH-dependent binding ability relative to WT (human IL-6 (Toray) [2]): 10 times

B3: Anti-IL6 clone 1 (antibody, human IgG1, kappa, V domains shown)
VH: EVQLVESGGKLLKPGGSLKLSCAASGFTFSSHAMSWFRQSPEKRLEWVAEISSGGSYTYHPHTVTGRFTISRDNAKNTLYLEMSSLRSEDTAMYYCARGLWGHYALDYWGQGTSVTVSS
VL: QIVLIQSPAIMSASPGEKVTMTCSASSSVSYMYWYQQKPGSSPRLLIYDTSNHASGVPVRFSGSGSGTSYSLTISRMEAEDAATYYCQHWSGHPYTFGGGTKLEIKR
notes: H chain (c1) and L chain (c1)
- KD(pH 5.5)/KD(pH 7.4) (human IL-6 (Toray) [1]): 10.3
- pH-dependent binding ability relative to WT (human IL-6 (Toray) [2]): 10 times

B4: H3pI/L73 (antibody, IgG1, V domains shown)
VH: QVQLQESGPGLVKPSETLSLTCAVSGHSISHDHAHSWVRQPPGEGLEWIGYISYSGITNYNPSLKGRVTISRDTSKNQFSLKLSSVTAADTAAYYCARSLARTTAMDYWGEGTLVTVSS
VL: DIQMTQSPSSLSASVGDSVTITCQASQHISSHLNWYQQKPGKAPELLIYYGSHLHSGVPSRFSGSGSGTDFTFTISSLEAEDAATYYCGQGNRLPYTFGQGTKVEIE
notes: antibody expressed as IgG1; also called H3pI/L73-IgG1; H3pl/L73
- kd(pH 5.8)/kd(pH 7.4) [3]: 2.59
- pH-dependent binding (affinity ratio) relative to WT [4]: 15 times
- KD(pH5.8)/KD(pH7.4) [5]: 41.3
- kd(pH 5.8)/kd(pH 7.4) [6]: 2.59

B5: H170/L82 (antibody, IgG1, V domains shown)
VH: QVQLQESGPGLVKPSETLSLTCAVSGHSISHHHAHSWVRQPPGEGLEWIGYISYSGITHYNPHLKGRVTISRDTSKNQFSLKLSSVTAADTAAYYCARVLARITAMDHWGEGTLVTVSS
VL: DIQMTQSPSSLSASVGDSVTITCQASQDISSHLNWYQQKPGKAPELLIYYGSHLHSGVPSRFSGSGSGTDFTFTISSLEAEDAATYYCGQGNRLPYTFGQGTKVEIE
notes: expressed and purified as IgG (IgG1); also called H170/L82-IgG1
- pH-dependent binding (affinity ratio) relative to WT [4]: 15 times
- KD(pH5.8)/KD(pH7.4) [5]: 394
- kd(pH 5.8)/kd(pH 7.4) [7]: 11.4
- total amount of antigen bound over ten cycles relative to WT [8]: ~4 times
- KD(pH5.8)/KD(pH7.4) [9]: 61.9

B6: CLH5/L73 (antibody, IgG1, V domains shown)
VH: QVQLQESGPGLVKPSETLSLTCAVSGYSISHDHAWSWVRQPPGEGLEWIGHISYSGITNYNPHLKGRVTISRDTSKNQFSLKLSSVTAADTAAYYCARFLARITAHDHWGEGTLVTVSS
VL: DIQMTQSPSSLSASVGDSVTITCQASQHISSHLNWYQQKPGKAPELLIYYGSHLHSGVPSRFSGSGSGTDFTFTISSLEAEDAATYYCGQGNRLPYTFGQGTKVEIE
- pH-dependent binding (affinity ratio) relative to WT [4]: 15 times
- KD(pH5.8)/KD(pH7.4) [5]: 66.1
- total amount of antigen bound over ten cycles relative to WT [8]: ~4 times

B7: humanized PM1 antibody (wild type, WT) (antibody, human IgG1, kappa, V domains shown)
VH: QVQLQESGPGLVRPSQTLSLTCTVSGYSITSDHAWSWVRQPPGRGLEWIGYISYSGITTYNPSLKSRVTMLRDTSKNQFSLRLSSVTAADTAVYYCARSLARTTAMDYWGQGSLVTVSS
VL: DIQMTQSPSSLSASVGDRVTITCRASQDISSYLNWYQQKPGKAPKLLIYYTSRLHSGVPSRFSGSGSGTDFTFTISSLQPEDIATYYCQQGNTLPYTFGQGTKVEIKR
notes: Tested as IgG1; also called WT-IgG1; H(WT)/L(WT)
- kd(pH 5.8)/kd(pH 7.4) [3]: 1
- KD(pH5.8)/KD(pH7.4) [5]: 2.4
- kd(pH 5.8)/kd(pH 7.4) [7]: 2.9
- kd(pH 5.8)/kd(pH 7.4) [6]: 1
- KD(pH5.8)/KD(pH7.4) [9]: 1.6
